# Like-named read-outs stand apart in the source and are kept apart here.
# Experiments:
# [1] = target: α1B-1α2bβ1-3 human neuronal calcium channel (human) (UniProt Q02641); assay: Bmax of 125I-ω-CgTx GVIA binding, against α1B-1β1-3
# [2] = target: α1B-2β1-3 human neuronal calcium channel subunit combination (human) (UniProt Q02641); assay: saturation binding of 125I-ω-CgTx GVIA to transfected HEK293 cells
# [3] = target: α1B-1α2bβ1-2 human neuronal calcium channel (human) (UniProt Q02641); assay: as above
# [4] = target: α1B-1β1-2 human neuronal calcium channel subunit combination (human) (UniProt Q02641); assay: as above
# [5] = target: α1B-2α2bβ1-2 human neuronal calcium channel (human) (UniProt Q02641); assay: as above
# [6] = target: α1B-1β1-3 human neuronal calcium channel subunit combination (human) (UniProt Q02641); assay: as above
# [7] = target: α1B-2α2bβ1-3 human neuronal calcium channel (human) (UniProt Q02641); assay: as above
# [8] = target: α1B-1α2bβ1-3 human neuronal calcium channel (human) (UniProt Q02641); assay: as above
# [9] = target: α1B-2β1-2 human neuronal calcium channel subunit combination (human) (UniProt Q02641); assay: as above
# [10] = target: α1B-1β1-2 human neuronal calcium channel subunit combination (human) (UniProt Q02641); assay: Bmax of 125I-ω-CgTx GVIA binding, against α1B-1 alone
# [11] = target: α1B-1β1-3 human neuronal calcium channel subunit combination (human) (UniProt Q02641); assay: as above
# [12] = target: α1B-1α2bβ1-2 human neuronal calcium channel (human) (UniProt Q02641); assay: Bmax of 125I-ω-CgTx GVIA binding, against α1B-1β1-2
# [13] = target: α1B-1α2bβ1-3 human neuronal calcium channel (human) (UniProt Q02641); assay: Bmax of 125I-ω-CgTx GVIA binding, against α1B-2α2bβ1-3
# [14] = target: α1B-2α2bβ1-3 human neuronal calcium channel (human) (UniProt Q02641); assay: Bmax of 125I-ω-CgTx GVIA binding, against α1B-2β1-3
# [15] = target: α1B-2α2bβ1-2 human neuronal calcium channel (human) (UniProt Q02641); assay: Bmax of 125I-ω-CgTx GVIA binding, against α1B-2β1-2
# [16] = target: α1B-1α2bβ1-3 human neuronal calcium channel (human) (UniProt Q02641); assay: Bmax of 125I-ω-CgTx GVIA binding, against α1B-1α2bβ1-2
# [17] = target: α1B-1α2bβ1-2 human neuronal calcium channel (human) (UniProt Q02641); assay: Bmax of 125I-ω-CgTx GVIA binding, against α1B-2α2bβ1-2
# [18] = target: α1B-2α2bβ1-3 human neuronal calcium channel (human) (UniProt Q02641); assay: as above
# [19] = target: α1B-1α2bβ1-2 human neuronal calcium channel (human) (UniProt Q02641)
# Chain of 125I-ω-CgTx GVIA (P01522 46-72 limits assumed): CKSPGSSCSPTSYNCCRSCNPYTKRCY
# Chain of α1B-2α2bβ1-2 human neuronal calcium channel (human) (Q02641 whole entry): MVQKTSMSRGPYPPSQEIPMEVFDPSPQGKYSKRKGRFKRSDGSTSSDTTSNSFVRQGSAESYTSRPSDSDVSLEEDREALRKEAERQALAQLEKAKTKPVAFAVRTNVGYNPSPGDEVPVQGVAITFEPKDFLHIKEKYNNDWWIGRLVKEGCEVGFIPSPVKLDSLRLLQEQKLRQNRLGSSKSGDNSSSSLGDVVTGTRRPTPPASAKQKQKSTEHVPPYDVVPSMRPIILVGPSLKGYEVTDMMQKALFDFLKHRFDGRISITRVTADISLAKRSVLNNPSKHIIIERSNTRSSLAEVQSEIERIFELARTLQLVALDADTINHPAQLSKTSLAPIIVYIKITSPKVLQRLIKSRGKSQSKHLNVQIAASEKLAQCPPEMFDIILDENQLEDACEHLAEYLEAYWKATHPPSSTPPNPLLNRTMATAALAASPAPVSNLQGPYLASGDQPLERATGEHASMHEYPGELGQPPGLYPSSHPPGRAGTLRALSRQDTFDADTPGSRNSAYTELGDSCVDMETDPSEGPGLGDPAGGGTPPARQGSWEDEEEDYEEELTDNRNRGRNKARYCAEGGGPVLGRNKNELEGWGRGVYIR
# Chain of α1B-1β1-2 human neuronal calcium channel subunit combination (human) (Q02641 whole entry): as above
# Chain of α1B-1α2bβ1-3 human neuronal calcium channel (human) (Q02641 whole entry): as above
# Chain of α1B-1α2bβ1-2 human neuronal calcium channel (human) (Q02641 whole entry): as above
# Chain of α1B-1β1-3 human neuronal calcium channel subunit combination (human) (Q02641 whole entry): as above
# Chain of α1B-2α2bβ1-3 human neuronal calcium channel (human) (Q02641 whole entry): as above
# Chain of α1B-2β1-3 human neuronal calcium channel subunit combination (human) (Q02641 whole entry): as above
# Chain of α1B-2β1-2 human neuronal calcium channel subunit combination (human) (Q02641 whole entry): as above
substance,measurement,setting,value
125I-ω-CgTx GVIA (from UniProt P01522 46-72) (peptide),fold change of surface receptor density,[1],10 fold
same,Bmax,[2],2940 sites/cell
same,Kd,[2],0.0222 nM
same,Bmax,[3],45300 sites/cell
same,Kd,[3],0.0549 nM
same,Bmax,[4],5760 sites/cell
same,Kd,[4],0.0179 nM
same,Bmax,[5],19400 sites/cell
same,Kd,[5],0.053 nM
same,Bmax,[6],8730 sites/cell
same,Kd,[6],0.0179 nM
same,Bmax,[7],37700 sites/cell
same,Kd,[7],0.0443 nM
same,Bmax,[8],91000 sites/cell
same,Kd,[8],0.0532 nM
same,Bmax,[9],2130 sites/cell
same,Kd,[9],0.0164 nM
same,fold change of surface binding,[10],8 fold
same,fold change of surface binding,[11],10 fold
same,fold change of surface receptor density,[12],8 fold
same,fold change of binding sites per cell,[13],2.5 fold
same,fold change of surface receptor density,[14],13 fold
same,fold change of surface receptor density,[15],9 fold
same,fold change of binding capacity,[16],2 fold
same,fold change of binding sites per cell,[17],2.5 fold
same,fold change of binding capacity,[18],2 fold
ω-CgTx GVIA (from UniProt P01522 46-72) (peptide),Kd,[19],0.0546 nM
same,binding capacity (Bmax) (sites per cell),[19],28700
